According to patent US20240279281A1, “Peptide Inhibitors of Interleukin-23 Receptor” (Janssen Pharmaceutica NV, priority 2023, published 2024):
Starred links: 1 amine or outer side, 2 acyl side, 3 side chain; linkers in the order of their positions; H or OH if unused. Positions of bridges follow the written chain, without caps; N, C: chain ends. Non-standard residues stand in square brackets, D forms with d. No end group written: not given here. X1 = 3‑(7-(3-acetamidophenyl)-1H-indol-3-yl)‑2‑aminopropanoic acid, CC(=O)Nc1cccc(-c2cccc3c(CC(N[*:1])C(=O)[*:2])c[nH]c23)c1; X3 = 4‑(2-(4-(2-amino-2-carboxyethyl)phenoxy)ethyl)‑4‑methylmorpholin‑4‑ium, C[N+]1(CCOc2ccc(CC(N[*:1])C(=O)[*:2])cc2)CCOCC1; 2Nal(6-OH) = N[C@@H](Cc1ccc2cc(O)ccc2c1)C(=O)O; Trp(7-Me) = Cc1cccc2c(C[C@H](N)C(=O)O)c[nH]c12; d(hLys(Me3)) = C[N+](C)(C)CCCCC[C@@H](N)C(=O)O; AEF = NCCOc1ccc(C[C@H](N)C(=O)O)cc1; 3Pal = N[C@@H](Cc1cccnc1)C(=O)O; Pen = CC(C)(S)[C@H](N)C(=O)O; lipid = not defined here; Thp = NC1(C(=O)O)CCOCC1; Sar = CNCC(=O)O

B1: SEQ ID NO: 166 (peptide)
peptide: [(R)‑3‑carboxy‑2‑(4-(((R)-5-carboxy-5-hydrazineylpentyl)amino)-4-oxobutanamido)‑N,N,N‑trimethylpropan‑1‑aminium][Pen]NT[Trp(7-Me)]K(Ac)[Pen][2‑amino‑3‑(4-(2-aminoethoxy)phenyl)propanoic acid][2‑amino‑3‑(6-hydroxynaphthalen-2-yl)propanoic acid][Thp]EN[3Pal][Sar]K(lipid)
modifications: disulfide 2-7 (inferred); ends not checked; also: K15: lipidated lysine, lipid not given here
B2: SEQ ID NO: 164 (peptide)
peptide: K(lipid)[Pen]NT[Trp(7-Me)]K(Ac)[Pen][2‑amino‑3‑(4-(2-aminoethoxy)phenyl)propanoic acid][2‑amino‑3‑(6-hydroxynaphthalen-2-yl)propanoic acid][Thp]K(Ac)N[3Pal][Sar]
modifications: disulfide 2-7 (inferred); ends not checked; also: K1: lipidated lysine, lipid not given here
B3: SEQ ID NO: 145 (peptide)
peptide: [(R)‑2‑(2-(3-((5-carboxy-5-hydrazineylpentyl)amino)-3-oxopropoxy)ethoxy)‑N,N,N‑trimethylethan‑1‑aminium][Pen]NT[Trp(7-Me)]K(Ac)[Pen][2‑amino‑3‑(4-(2-aminoethoxy)phenyl)propanoic acid][2‑amino‑3‑(6-hydroxynaphthalen-2-yl)propanoic acid][Thp]EN[3Pal][Sar]
modifications: disulfide 2-7 (inferred); ends not checked
B4: SEQ ID NO: 156 (peptide)
peptide: R[Pen]NT[X1]K(Ac)[Pen][2‑amino‑3‑(4-(2-aminoethoxy)phenyl)propanoic acid][2‑amino‑3‑(6-hydroxynaphthalen-2-yl)propanoic acid][Thp]EN[3Pal][Sar]K
modifications: disulfide 2-7 (inferred); ends not checked; also: K15: lipidated lysine, lipid not given here
B5: SEQ ID NO: 144 (peptide)
peptide: [d(hLys(Me3))][Pen]NT[Trp(7-Me)]K(Ac)[Pen][2‑amino‑3‑(4-(2-aminoethoxy)phenyl)propanoic acid][2‑amino‑3‑(6-hydroxynaphthalen-2-yl)propanoic acid][Thp]EN[3Pal][Sar]
modifications: disulfide 2-7 (inferred); ends not checked
B6: SEQ ID NO: 150 (peptide)
peptide: R[Pen]KT[X1]K(Ac)[Pen][2‑amino‑3‑(4-(2-aminoethoxy)phenyl)propanoic acid][2‑amino‑3‑(6-hydroxynaphthalen-2-yl)propanoic acid][Thp]EN[3Pal][Sar]
modifications: disulfide 2-7 (inferred); ends not checked; also: Lys3: lipidated lysine, lipid not given here
B7: SEQ ID NO: 148 (peptide)
peptide: R[Pen]ET[Trp(7-Me)]K(Ac)[Pen][2‑amino‑3‑(4-(2-aminoethoxy)phenyl)propanoic acid][2‑amino‑3‑(6-hydroxynaphthalen-2-yl)propanoic acid][Thp]EN[3Pal][Sar]K
modifications: disulfide 2-7 (inferred); ends not checked; also: Lys15: lipidated lysine, lipid not given here
B8: SEQ ID NO: 140 (peptide)
peptide: R[Pen]ET[Trp(7-Me)]K[Pen][AEF][2Nal(6-OH)][Thp]EN[3Pal][Sar]
modifications: disulfide 2-7 (inferred); ends not checked; also: K6: lipidated lysine, lipid not given here
B9: SEQ ID NO: 142 (peptide)
peptide: R[Pen]ET[Trp(7-Me)]K(Ac)[Pen][2‑amino‑3‑(4-(2-aminoethoxy)phenyl)propanoic acid][2‑amino‑3‑(6-hydroxynaphthalen-2-yl)propanoic acid][Thp]EN[3Pal][Sar]K
modifications: disulfide 2-7 (inferred); ends not checked; also: Lys15: lipidated lysine, lipid not given here
B10: SEQ ID NO: 147 (peptide)
peptide: R[Pen]ET[Trp(7-Me)]K(Ac)[Pen][2‑amino‑3‑(4-(2-aminoethoxy)phenyl)propanoic acid][2‑amino‑3‑(6-hydroxynaphthalen-2-yl)propanoic acid][Thp]EN[3Pal][Sar]K
modifications: disulfide 2-7 (inferred); ends not checked; also: Lys15: lipidated lysine, lipid not given here
B11: SEQ ID NO: 153 (peptide)
peptide: [Pen]NT[X1]K(Ac)[Pen][2‑amino‑3‑(4-(2-aminoethoxy)phenyl)propanoic acid][2‑amino‑3‑(6-hydroxynaphthalen-2-yl)propanoic acid][Thp]KN[3Pal][Sar]
modifications: disulfide 1-6 (inferred); ends not checked; also: K10: lipidated lysine, lipid not given here
B12: SEQ ID NO: 165 (peptide)
peptide: [Pen]NT[Trp(7-Me)]K(Ac)[Pen][2‑amino‑3‑(4-(2-aminoethoxy)phenyl)propanoic acid][2‑amino‑3‑(6-hydroxynaphthalen-2-yl)propanoic acid][Thp]K(Ac)N[3Pal][Sar]K(lipid)
modifications: disulfide 1-6 (inferred); ends not checked; also: K14: lipidated lysine, lipid not given here
B13: SEQ ID NO: 151 (peptide)
peptide: R[Pen]NT[X1]K(Ac)[Pen][2‑amino‑3‑(4-(2-aminoethoxy)phenyl)propanoic acid][2‑amino‑3‑(6-hydroxynaphthalen-2-yl)propanoic acid][Thp]EN[3Pal][Sar]
modifications: disulfide 2-7 (inferred); ends not checked
B14: SEQ ID NO: 139 (peptide)
peptide: [Pen]NT[Trp(7-Me)]K(Ac)[Pen][AEF][2Nal(6-OH)][Thp]K(Ac)N[3Pal][Sar]K
modifications: disulfide 1-6 (inferred); ends not checked; also: K14: lipidated lysine, lipid not given here
B15: SEQ ID NO: 141 (peptide)
peptide: R[Pen]ET[Trp(7-Me)]K(Ac)[Pen][AEF][2Nal(6-OH)][Thp]EN[3Pal][Sar]
modifications: disulfide 2-7 (inferred); ends not checked
B16: SEQ ID NO: 161 (peptide)
peptide: R[Pen]NT[X1]K(Ac)[Pen][X3][2‑amino‑3‑(6-hydroxynaphthalen-2-yl)propanoic acid][Thp]EN[3Pal][Sar]
modifications: disulfide 2-7 (inferred); ends not checked

Molecular target: T1, interleukin-23 receptor (IL-23R), Q5VWK5
T1 chain: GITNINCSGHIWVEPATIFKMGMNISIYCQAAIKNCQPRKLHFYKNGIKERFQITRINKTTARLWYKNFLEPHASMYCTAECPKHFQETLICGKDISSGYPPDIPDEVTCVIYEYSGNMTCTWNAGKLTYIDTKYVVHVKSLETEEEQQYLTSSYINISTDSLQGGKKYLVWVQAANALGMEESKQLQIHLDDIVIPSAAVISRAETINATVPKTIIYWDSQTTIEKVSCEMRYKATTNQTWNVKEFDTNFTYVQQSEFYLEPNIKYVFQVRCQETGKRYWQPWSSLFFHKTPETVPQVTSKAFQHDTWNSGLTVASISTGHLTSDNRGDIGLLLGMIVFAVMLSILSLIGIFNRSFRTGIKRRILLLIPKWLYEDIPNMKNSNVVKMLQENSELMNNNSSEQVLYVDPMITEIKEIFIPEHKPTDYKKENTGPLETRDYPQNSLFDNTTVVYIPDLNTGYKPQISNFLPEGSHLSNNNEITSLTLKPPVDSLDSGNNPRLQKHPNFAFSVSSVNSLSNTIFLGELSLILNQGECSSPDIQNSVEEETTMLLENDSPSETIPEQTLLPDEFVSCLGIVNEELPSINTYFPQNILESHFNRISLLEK
Assay: cell-based or functional assay

Binder	PBMC pSTAT3 IC50
B1	< 1 nM
B2	< 1 nM
B3	< 0.1 nM
B4	< 1 nM
B5	< 1 nM
B6	< 1 nM
B7	< 0.1 nM
B8	< 1 nM
B9	< 0.1 nM
B10	< 1 nM
B11	< 0.1 nM
B12	> 1 nM
B13	< 1 nM
B14	< 0.1 nM
B15	< 0.1 nM
B16	< 10 pM
